In patent US7572594B2, “Screening assays for agonists or antagonists or receptor activator of NF-κB” (Immunex Corporation, priority 2000, dated 2009):

Experiments:
mouse TRAP mRNA = test: Quantitative RT-PCR of TRAP mRNA in RAW 264.7 cells; type: cell-based; details: RANKL/LZ 200 ng/ml or TNFα 20 ng/ml, various times
mouse MMP-9 mRNA = test: Quantitative RT-PCR of MMP-9 mRNA in RAW 264.7 cells; type: cell-based; details: RANKL/LZ 200 ng/ml or TNFα 20 ng/ml, various times
Description: MMP-9 mRNA is elevated greater than 350-fold by RANK-L, but is not increased by TNFα. This specificity is helpful in screening for inhibitors of RANK signal transduction.

[1] = tested on: MMP-9 promoter (nucleotides 1769-3591 of SEQ ID NO:11); test: pSIR/MMP-9 hIL-2 αR reporter in RAW264.7 cells, flow cytometry; type: cell-based, murine; details: RAW264.7 cells stably expressing pSIR/MMP-9
Description: The location of the RANK-responsive portion of MMP-9 promoter was more narrowly identified by testing further truncations of the promoter. A PVUII/BGL2 restriction fragment including the 5′-proximal 1822 bp of the MMP-9 promoter was fused with a BLGII/EcoRI restriction fragment encoding the human IL-2 receptor a in the multicloning site of the pSIR retroviral vector (Clontech). The resulting plasmid, which was named pSIR/MMP-9, is responsive to RANK and is useful in assays to identify RANK antagonists. The region of the MMP-9 promoter present in pSIR/MMP-9 corresponds to nucleotides 1769-3591 of SEQ ID NO:11.
pSIR/MMP-9 was introduced into RANK responsive cells as follows. Retroviral particles were prepared after transfection of 293/E packaging cells with pSIR/MMP-9. RAW264.7 cells were infected with these particles and neomycin resistant colonies stably expressing the reporter were isolated. Treatment of these cells with RANKL led to an increase in the cell surface expression of the hIL-2 αR, as detected by flow cytometry using the mouse mAb (clone 2A3) anti-human IL-2 αR as a reagent for detecting the IL-2R. […]
Surface expression of human IL-2α receptor is detected by flow cytometry in the following manner. […] After washing the cells, the fluorescence intensity is measured using a flow cytometer, such as a FACS scan (Becton Dickinson).

RANK = test: radioimmune assay of reporter surface expression in 293/EBNA cells; type: cell-based; details: 48 hours after transfection
Procedure: Additionally, surface expression of human IL-2α receptor can be analyzed using a radioactive antibody against IL-2α receptor. For the mIL-4R-specific radioimmune assay, mouse anti-human IL-2α monoclonal antibody reactive with mIL-4R was labeled with ^125I via a Chloramine T conjugation method; the resulting specific activity is typically […]. After 48 hours, cells transfected with pGL2-MMP-9/human IL-2 receptor were washed once with media (DMEM, 12 5% FBS). Non-specific binding sites were blocked by the addition of pre-warmed binding media containing 5% non-fat dry milk and incubation at 37° C./5% CO2 in a tissue culture incubator for one hour. The blocking media was decanted and binding buffer containing ^125I anti-mIL-4R (clone M1; rat IgG1) was added to the cells and incubated with rocking at room temperature for 1 hour. After incubation of the cells with the radio-labeled antibody, cells were washed extensively with binding buffer (2 X) and twice with phosphate-buffered saline (PBS). Cells were lysed in 1 ml of 0.5M NaOH, and total radioactivity measured with a gamma counter.

[2] = tested on: endogenous c-jun kinase (JNK); test: JNK immune-complex kinase assay in transfected 3T3 cells; type: cell-based, murine; details: 3T3 cells 24 hours after transfection, absence of RANK-L stimulation
Procedure: This example describes evaluating murine 3T3 cells transfected with plasmids containing DNA encoding human FEO RANK (SEQ ID NO:9), and murine 3T3 cells expressing recombinant DNA encoding human wild type RANK (SEQ ID NO:1) for their relative ability to activate endogenous c-jun kinase (JNK) in the absence of RANK-L stimulation. JNK is known to be activated as a consequence of RANK signal transduction.
For JNK assays, whole cell extracts were prepared from 3T3 cells 24 hours after transfection. Cells were lysed in a buffer containing 20 mM HEPES, pH 7.4, 2 mM EGTA, 50 mM β-glycerol phosphate, 1 mM DTT, 1 mM sodium orthovanadate, 1% Triton-X 100, 10% glycerol and the protease inhibitors leupeptin, pepstatin A, and PMSF. Clarified lysates were immunoprecipitated with 1 μg each anti-JNK (FL) and anti-JNK (C17) antibodies (both from Santa Cruz Biotechnology, Inc. Santa Cruz, Calif.). […] JNK activity was determined by an immune-complex assay using 1 μg of a fusion protein of glutathione-S-transferase and amino acids 1-169 of […] (GST-cJun (1-169)) (UBI, Lake Placid, N.Y.) and 5 μCi of [^32P]-ATP as substrate in 40 μl of assay buffer at 30° C. for 20 min. […]

TNFα [reference compound]
TRAP mRNA elevation (mouse TRAP mRNA): about 2.3 fold | MMP-9 mRNA elevation (mouse MMP-9 mRNA): not increased

B1: RANKL: RANK ligand used to treat RAW264.7 reporter cells; form not specified (protein)
chain: MRRASRDYTKYLRGSEEMGGGPGAPHEGPLHAPPPPAPHQPPAASRSMFVALLGLGLGQVVCSVALFFYFRAQMDPNRISEDGTHCIYRILRLHENADFQDTTLESQDTKLIPDSCRRIKQAFQGAVQKELQHIVGSQHIRAEKAMVDGSWLDLAKRSKLEAQPFAHLTINATDIPSGSHKVSLSSWYHDRGWAKISNMTFSNGKLIVNQDGFYYLYANICFRHHETSGDLATEYLQLMVYVTKTSIKIPSSHTLMKGGSTKYWSGNSEFHFYSINVGGFFKLRSGEEISIEVSNPSLLDPDQDATYFGAFKVRDID
cell surface expression of the hIL-2 αR [1]: increase | time to maximal level of hIL-2 α receptor expression [1]: ≤ 48 h

B2: RANK-L: RANK ligand, Type 2 transmembrane protein that binds to and activates RANK; human full-length SEQ ID NO:6 (protein, listed as Homo sapiens)
chain: MRRASRDYTKYLRGSEEMGGGPGAPHEGPLHAPPPPAPHQPPAASRSMFVALLGLGLGQVVCSVALFFYFRAQMDPNRISEDGTHCIYRILRLHENADFQDTTLESQDTKLIPDSCRRIKQAFQGAVQKELQHIVGSQHIRAEKAMVDGSWLDLAKRSKLEAQPFAHLTINATDIPSGSHKVSLSSWYHDRGWAKISNMTFSNGKLIVNQDGFYYLYANICFRHHETSGDLATEYLQLMVYVTKTSIKIPSSHTLMKGGSTKYWSGNSEFHFYSINVGGFFKLRSGEEISIEVSNPSLLDPDQDATYFGAFKVRDID
transcriptional activation, reporter detected on the cell surface (RANK): resulted in transcription of muIL-4R

B3: FEO RANK: mutated form of RANK isolated from patients with familial expansile osteolysis (SEQ ID NOS:9 and 10), expressed from transfected DNA (protein, listed as Homo sapiens)
chain: MAPRARRRRPLFALLLLCALLLLCALLARLQVALQIAPPCTSEKHYEHLGRCCNKCEPGKYMSSKCTTTSDSVCLPCGPDEYLDSWNEEDKCLLHKVCDTGKALVAVVAGNSTTPRRCACTAGYHWSQDCECCRRNTECAPGLGAQHPLQLNKDTVCKPCLAGYFSDAFSSTDKCRPWTNCTFLGKRVEHHGTEKSDAVCSSSLPARKPPNEPHVYLPGLIILLLFASVALVAAIIFGVCYRKKGKALTANLWHWINEACGRLSGDKESSGDSCVSTHTANFGQQGACEGVLLLTLEEKTFPEDMCYPDQGGVCQGTCVGGGPYAQGEDARMLSLVSKTEIEEDSFRQMPTEDEYMDRPSQPTDQLLFLTEPGSKSTPPFSEPLEVGENDSLSQCFTGTQSTVGSESCNCTEPLCRTDWTPMSSENYLQKEVDSGHCPHWAASPSPNWADVCTGCRNPPGEDCEPLVGSPKRGPLPQCAYGMGLPPEEEASRTEARDQPEDGADGRLPSSARAGAGSGSSPGGQSPASGNVTGNSNSTFISSGQVMNFKGDIIVVYVSQTSQEGAAAAAEPMGRPVQEETLARRDSFAGNGPRFPDPCGGPEGLREPEKASRPVQEQGGAKA
activation of JNK [2]: activated
